Test [1] has as its target C5-OmCI complex (human | not stated (tick)) (UniProt Q5YD59). Put plainly: SEC-MALS.
A further test addresses complement C5 (human, UniProt P01031). Put plainly: crystal structure.

From paper PMC5771465 (Nature structural & molecular biology, 2016) come the findings set out here.

In the case of “RaCI3 (from UniProt A0A146B485 25-102) (natural protein)”, the stoichiometry N (usually a count of units in the complex or per binding partner) in test [1] was determined as 1.

B1: His-tagged OmCI carrying two glycosylation mutations (N78Q/N102Q) (natural protein)
chain: DSESDCTGSEPVDAFQAFSEGKEAYVLVRSTDPKARDCLKGEPAGEKQDNTLPVMMTFKQGTDWASTDWTFTLDGAKVTATLGQLTQNREVVYDSQSHHCHVDKVEKEVPDYEMWMLDAGGLEVEVECCRQKLEELASGRNQMYPHLKDC
Turning to B1, the binding result with complement C5 is on record as “binds”.
